Experimental data as given in patent US20150051149A1 (published 2015).

Assays:
DRB*0701 = DRB*0701 (human); assay: HLA competition binding
DRB*0301 = DRB*0301 (human, UniProt P01903 26-216); assay: HLA competition binding

Row | IC50 (DRB*0701) [µM] | IC50 (DRB*0301) [µM] | Binder
1 | 1 | – | PTSLLISWDAPAVTVRYYRITYG [BC Loop SEQ ID NO 58]
2 | > 200 | – | PVQEFTVPGSKSTATISGLK [DE Loop SEQ ID NO 51]
3 | 0.5 | 1 | MGEVVAATPTSLLIS [N-terminal to BC Loop SEQ ID NO 53]
